From US20210070882A1 (Hoffmann-La Roche, published 2021)
Numbering of substitutions follows the chain as printed. Where “and” joins values, the source holds several entries; their conditions need not be identical. Equal entries are not always repeated. Where two headings read alike, the source gives them in different places.

Key:
[1] = target: T1, human CD19 (human, UniProt P15391 20-556); test: cell-based or functional assay
T1 sequence (looked up): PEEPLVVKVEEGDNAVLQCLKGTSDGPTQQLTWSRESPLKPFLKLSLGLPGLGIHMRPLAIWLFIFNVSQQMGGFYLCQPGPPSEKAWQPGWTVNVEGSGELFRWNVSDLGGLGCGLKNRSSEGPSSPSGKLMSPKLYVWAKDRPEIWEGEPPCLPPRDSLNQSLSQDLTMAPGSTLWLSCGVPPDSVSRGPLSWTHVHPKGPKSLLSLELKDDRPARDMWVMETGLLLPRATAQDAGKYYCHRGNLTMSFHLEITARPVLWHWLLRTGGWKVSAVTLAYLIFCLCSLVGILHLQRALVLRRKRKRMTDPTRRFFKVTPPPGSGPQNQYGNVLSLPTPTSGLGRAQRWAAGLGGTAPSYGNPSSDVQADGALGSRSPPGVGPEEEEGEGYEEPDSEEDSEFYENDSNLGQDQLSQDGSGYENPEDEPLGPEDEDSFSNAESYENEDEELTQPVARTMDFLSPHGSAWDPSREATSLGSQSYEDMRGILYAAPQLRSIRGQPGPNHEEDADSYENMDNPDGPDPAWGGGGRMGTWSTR

[2] = target: T1, human CD19; test: cell-based or functional assay; remark: listed apart in the source
[3] = target: T1, human CD19; test: flow cytometry on CD19-expressing Raji cells
Procedure: The binding of CD19 IgGs and CD19 TCBs to human CD19- and CD3-expressing target cells was tested using CD19-expressing Burkitt's lymphoma cells (Raji) and CD3-expressing immortalized T lymphocyte line (Jurkat). Briefly, cells were harvested, counted, checked for viability and resuspended at 2×10⁶ cells/ml in FACS buffer (100 μl PBS 0.1% BSA). 100 μl of cell suspension (containing 0.2×10⁶ cells) were incubated in round-bottom 96-well plate for 30 min at 4° C. with increasing concentrations of the CD19 IgGs and CD19 TCBs (10 pM-200 nM), washed twice with cold PBS 0.1% BSA, re-incubated for further 30 min at 4° C. with the PE-conjugated AffiniPure F(ab′)2 Fragment goat anti-human IgG Fcg Fragment Specific secondary antibody (Jackson Immuno Research Lab PE #109-116-170), washed twice with cold PBS 0.1% BSA and immediately analyzed by FACS using a FACS Cantoll (Software FACS Diva) by gating live, DAPI-negative, cells.

[4] = target: T1, human CD19; test: cell-based or functional assay; remark: listed apart in the source
[5] = target: T1, human CD19; test: cell-based or functional assay; remark: listed apart in the source
[6] = target: T1, human CD19; test: cell-based or functional assay; remark: listed apart in the source
[7] = target: T1, human CD19; test: cell-based or functional assay; remark: listed apart in the source
[8] = target: T1, human CD19; test: cell-based or functional assay; remark: listed apart in the source
[9] = target: T1, human CD19; test: cell-based or functional assay; remark: listed apart in the source

B1: Molecule G: 2+1 IgG CrossFab, inverted, with charge modifications (VH/VL exchange in CD19 binder, charge modification in CD3 binder, parental murine CD19 … (bispecific antibody)
chain 1: DAVMTQTPLSLPVSLGDQASISCRSSQSLENSNGNTYLNWYLQKPGQSPQLLIYRVSKRFSGVLDRFSGSGSGTDFTLKISRVEAEDLGVYFCLQLTHVPYTFGGGTKLEIKSSASTKGPSVFPLAPSSKSTSGGTAALGCLVKDYFPEPVTVSWNSGALTSGVHTFPAVLQSSGLYSLSSVVTVPSSSLGTQTYICNVNHKPSNTKVDKKVEPKSCDKTHTCPPCPAPEAAGGPSVFLFPPKPKDTLMISRTPEVTCVVVDVSHEDPEVKFNWYVDGVEVHNAKTKPREEQYNSTYRVVSVLTVLHQDWLNGKEYKCKVSNKALGAPIEKTISKAKGQPREPQVCTLPPSRDELTKNQVSLSCAVKGFYPSDIAVEWESNGQPENNYKTTPPVLDSDGSFFLVSKLTVDKSRWQQGNVFSCSVMHEALHNHYTQKSLSLSP
chain 2: not shown
chain 3: EVQLQQSGPELVKPGASVKMACKASGYTFTDYIMHWVKQKTGQGLEWIGYINPYNDGSKYTEKFNGKATLTSDKSSITAYMELSSLTSEDSAVYYCARGTYYYGSALFDYWGQGTTLTVSSASVAAPSVFIFPPSDEQLKSGTASVVCLLNNFYPREAKVQWKVDNALQSGNSQESVTEQDSKDSTYSLSSTLTLSKADYEKHKVYACEVTHQGLSSPVTKSFNRGEC
chain 4: QAVVTQEPSLTVSPGGTVTLTCGSSTGAVTTSNYANWVQEKPGQAFRGLIGGTNKRAPGTPARFSGSLLGGKAALTLSGAQPEDEAEYYCALWYSNLWVFGGGTKLTVLGQPKAAPSVTLFPPSSKKLQANKATLVCLISDFYPGAVTVAWKADSSPVKAGVETTTPSKQSNNKYAASSYLSLTPEQWKSHRSYSCQVTHEGSTVEKTVAPTECS
In the case of B1, the “Tumor cell lysis Z-138 cells (21 h), EC50” value [1] is reported as 0.57 ng/mL, the “Tumor cell lysis Z-138 cells (21 h), EC50 (pM)” value [1] is reported as 2.93 pM and the “T cell activation EC50 upon lysis of Z-138 cells, CD25/CD4” value [2] is reported as 1.85 pM. The “T cell activation EC50 upon lysis of Z-138 cells, CD25/CD8” value [2] was 1.53 pM, the “T cell activation EC50 upon lysis of Z-138 cells, CD69/CD4” value [2] was roughly 0.75 pM and the “T cell activation EC50 upon lysis of Z-138 cells, CD69/CD8” value [2] was 0.7 pM. The “T cell activation EC50 upon lysis of Z-138 cells, CD107/CD4” value [2] was 1.14 pM and the “T cell activation EC50 upon lysis of Z-138 cells, CD107/CD8” value [2] was 1.13 pM.

B2: CD19_IgG_10C1 (antibody, V domains shown)
VH: EVQLQQSGPELVKPGASVKMSCKASGYTFTSYVMHWVKQKPGQGLEWIGYINPYNDGTKFNEKFKGKATLTSDKSSSTAYMELSSLTSEDSAVYYCTRGVYYYGSSQGDYWGQGTTLTVSS
VL: DAVMTQTPLSLPVSLGDQASISCRSSQSLENSNGNTYLNWYLQKPGQSPQLLIYRISNRFSGVPDRFNGSGSGTDFTLKISRVEAEDLGVYFCLQVTHVPWTFGGGTKLEIK
notes: also called CD19 IgG (clone 10C1); 10C1 as IgG
In the case of B2, the EC50 [3] is reported as 5.2 nM and 0.763 µg/mL.

B3: Molecule B: 2+1 IgG CrossFab, inverted, without charge modifications (CH1/CL exchange in CD3 binder, parental murine CD19 binder 8B8) (bispecific antibody)
chain 1: EVQLQQSGPELVKPGASVKMACKASGYTFTDYIMHWVKQKTGQGLEWIGYINPYNDGSKYTEKFNGKATLTSDKSSITAYMELSSLTSEDSAVYYCARGTYYYGSALFDYWGQGTTLTVSSASTKGPSVFPLAPSSKSTSGGTAALGCLVKDYFPEPVTVSWNSGALTSGVHTFPAVLQSSGLYSLSSVVTVPSSSLGTQTYICNVNHKPSNTKVDKKVEPKSCDKTHTCPPCPAPEAAGGPSVFLFPPKPKDTLMISRTPEVTCVVVDVSHEDPEVKFNWYVDGVEVHNAKTKPREEQYNSTYRVVSVLTVLHQDWLNGKEYKCKVSNKALGAPIEKTISKAKGQPREPQVCTLPPSRDELTKNQVSLSCAVKGFYPSDIAVEWESNGQPENNYKTTPPVLDSDGSFFLVSKLTVDKSRWQQGNVFSCSVMHEALHNHYTQKSLSLSP
chain 2: not shown
chain 3: QAVVTQEPSLTVSPGGTVTLTCGSSTGAVTTSNYANWVQEKPGQAFRGLIGGTNKRAPGTPARFSGSLLGGKAALTLSGAQPEDEAEYYCALWYSNLWVFGGGTKLTVLSSASTKGPSVFPLAPSSKSTSGGTAALGCLVKDYFPEPVTVSWNSGALTSGVHTFPAVLQSSGLYSLSSVVTVPSSSLGTQTYICNVNHKPSNTKVDKKVEPKSC
chain 4: DAVMTQTPLSLPVSLGDQASISCRSSQSLENSNGNTYLNWYLQKPGQSPQLLIYRVSKRFSGVLDRFSGSGSGTDFTLKISRVEAEDLGVYFCLQLTHVPYTFGGGTKLEIKRTVAAPSVFIFPPSDEQLKSGTASVVCLLNNFYPREAKVQWKVDNALQSGNSQESVTEQDSKDSTYSLSSTLTLSKADYEKHKVYACEVTHQGLSSPVTKSFNRGEC
notes: also called CD19 TCB_8B8; CD19 TCB_8 B8
B3 was tested, and the “Tumor cell lysis Z-138 cells (21 h), EC50” value [4] was 0.8 ng/mL, the “Tumor cell lysis Z-138 cells (21 h), EC50 (pM)” value [4] was 4.1 pM and the “Tumor cell lysis Z-138 cells (21 h), EC50” value [1] was 0.62 ng/mL. For the same binder, the “Tumor cell lysis Z-138 cells (21 h), EC50 (pM)” value [1] was 3.16 pM, the EC50 [3] was 4.1 nM and 0.795 µg/mL and the “Tumor cell lysis Z-138 cells (21 h), EC50” value [5] was 0.62 ng/mL. For the same binder, the “Tumor cell lysis Z-138 cells (21 h), EC50 (pM)” value [5] was 3.2 pM, the “T cell activation EC50, CD25/CD4, Nalm-6” value [6] was 3.3 pM and the “T cell activation EC50, CD25/CD4, SUDHL-4” value [6] was 3.9 pM. For the same binder, the “T cell activation EC50, CD25/CD8, Nalm-6” value [6] was 0.7 pM, the “T cell activation EC50, CD25/CD8, SUDHL-4” value [6] was 2.1 pM and the “T cell activation EC50, CD69/CD4, Nalm-6” value [6] was 0.9 pM. For the same binder, the “T cell activation EC50, CD69/CD4, SUDHL-4” value [6] was 2 pM, the “T cell activation EC50, CD69/CD8, Nalm-6” value [6] was 0.8 pM and the “T cell activation EC50, CD69/CD8, SUDHL-4” value [6] was 2.7 pM. The “Tumor lysis EC50 (pM), Nalm-6” value [7] was 1.7 pM, the “Tumor lysis EC50 (pM), SUDHL-4” value [7] was 0.8 pM and the “T cell activation EC50 upon Z-138 lysis, CD25/CD4” value [8] was 2.4 pM. For the same binder, the “T cell activation EC50 upon Z-138 lysis, CD25/CD8” value [8] was 2.4 pM, the “T cell activation EC50 upon Z-138 lysis, CD69/CD4” value [8] was 1.8 pM and the “T cell activation EC50 upon Z-138 lysis, CD69/CD8” value [8] was 2.7 pM. For the same binder, the “T cell activation EC50 upon lysis of Z-138 cells, CD25/CD4” value [9] was 3.22 pM, the “T cell activation EC50 upon lysis of Z-138 cells, CD25/CD8” value [9] was 1.86 pM and the “T cell activation EC50 upon lysis of Z-138 cells, CD69/CD4” value [9] was 1.01 pM. For the same binder, the “T cell activation EC50 upon lysis of Z-138 cells, CD69/CD8” value [9] was 0.83 pM, the “T cell activation EC50 upon lysis of Z-138 cells, CD107/CD4” value [9] was 1.68 pM and the “T cell activation EC50 upon lysis of Z-138 cells, CD107/CD8” value [9] was 1.32 pM. The “T cell activation EC50 upon lysis of Z-138 cells, CD25/CD4” value [2] was 2.77 pM, the “T cell activation EC50 upon lysis of Z-138 cells, CD25/CD8” value [2] was 1.7 pM and the “T cell activation EC50 upon lysis of Z-138 cells, CD69/CD4” value [2] was roughly 0.81 pM. The “T cell activation EC50 upon lysis of Z-138 cells, CD69/CD8” value [2] was 0.82 pM, the “T cell activation EC50 upon lysis of Z-138 cells, CD107/CD4” value [2] was 1.37 pM and the “T cell activation EC50 upon lysis of Z-138 cells, CD107/CD8” value [2] was 1.22 pM.

B4: Molecule A: 2+1 IgG CrossFab, inverted, with charge modifications (VH/VL exchange in CD3 binder, charge modification in CD19 binder, parental murine CD19 … (bispecific antibody)
chain 1: B3 chain 1 with K151E, K217E
chain 2: not shown
chain 3: EVQLLESGGGLVQPGGSLRLSCAASGFTFSTYAMNWVRQAPGKGLEWVSRIRSKYNNYATYYADSVKGRFTISRDDSKNTLYLQMNSLRAEDTAVYYCVRHGNFGNSYVSWFAYWGQGTLVTVSSASVAAPSVFIFPPSDEQLKSGTASVVCLLNNFYPREAKVQWKVDNALQSGNSQESVTEQDSKDSTYSLSSTLTLSKADYEKHKVYACEVTHQGLSSPVTKSFNRGEC
chain 4: B3 chain 4 with E128R, Q129K
With B4 the “Tumor cell lysis Z-138 cells (21 h), EC50” value [1] was 0.92 ng/mL, the “Tumor cell lysis Z-138 cells (21 h), EC50 (pM)” value [1] was roughly 4.7 pM and the “T cell activation EC50 upon lysis of Z-138 cells, CD25/CD4” value [2] was roughly 4.58 pM. For the same binder, the “T cell activation EC50 upon lysis of Z-138 cells, CD25/CD8” value [2] was 2.87 pM, the “T cell activation EC50 upon lysis of Z-138 cells, CD69/CD4” value [2] was 1.41 pM and the “T cell activation EC50 upon lysis of Z-138 cells, CD69/CD8” value [2] was 1.37 pM. For the same binder, the “T cell activation EC50 upon lysis of Z-138 cells, CD107/CD4” value [2] was 2.34 pM and the “T cell activation EC50 upon lysis of Z-138 cells, CD107/CD8” value [2] was 2 pM.
